25 sequences from the supplement of paper PMC9170038 can be followed below.

In this data set the test system is MS2 coat protein. Put plainly: apparent KD of MS2 coat protein; designed switch direction (-1 OFF switch, 1 ON switch): -1; higher = weaker reporter binding. Summed up: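 Stalled E. coli RNA polymerase transcribed designed RNA switches on Illumina chips, which were then titrated with SNAP-549-labelled MS2 coat protein, doubling from 0.7 or 1.5 nM to 3 µM. Steps lasted from 0.8–1.5 h at the lowest concentration to 10–20 min at the highest. The apparent KD is each design's median over clusters of curve-fitted normalised fluorescence.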

Where [1] appears, read: input ligand: microRNA oligo, concentration not stated.
Setting [2] is: Eterna round: R95, input ligand: microRNA oligo, concentration not stated.
The mark [3] stands for this setting: Eterna round: R95, input ligand: FMN 200 uM.
[4] abbreviates: Eterna round: R95, input ligand: none.

In the case of “CUUCUCAAAGGAUAUCACGGUAAUAACAUGAGGAUCACCCAUGUGCAAUUCGUGUCCCUGUGAGAAGGUUGAGAAG [Remaor] (Eterna round: R96, puzzle: Exclusion 5)”, the “apparent KD of MS2 coat protein” value (input ligand: FMN 200 uM) turned out to be 19.5 nM, the “apparent KD of MS2 coat protein” value under setting [1] was determined as 11.1 nM and the “apparent KD of MS2 coat protein” value (input ligand: none) worked out at 13.2 nM. On to “CUUCUCAAAGGAUAUCACGGUAAUAACAUGAGGAUCACCCAUGUGCAAUUCGUGUCCCUGUGAGAAGGUUGAGAAG [Remaor] (puzzle: Exclusion 5)”, for which, under setting [2], the “apparent KD of MS2 coat protein” value amounted to 10.5 nM.

“CUUGUGCAACAGGAUAUGUGCACGGCAGUAGCAACAGAAGGGUUGACAUGAGGAUCACCCAUGUUUACAAAGCG [Eternabot (Original) Solution 35] (Eterna round: R97, puzzle: Exclusion 6)”: the “apparent KD of MS2 coat protein” value runs as follows: (input ligand: FMN 200 uM) 132 nM; (input ligand: none) 137 nM. “CUUGUGUGAGGAUAUGACAAUGGUAUCUUCGGAUACCAUUGUCAGAAGGUACAUGAGGAUCACCCAUGUAGAUC [Exclusion 4 - Mod Brourd Ex 4-3: 20] (puzzle: Exclusion 4)”: the “apparent KD of MS2 coat protein” value under setting [2] came to 72 nM. In the case of “CUUUCGUCUGUGGGUGGUGACAUGAGGAUCACCCAUGUUUUGCUCGUCUUGUGCCGGGCCCGGCGCCCGGGCCCGGC [-38.7, -62.6, A 8%] (Eterna round: R97, puzzle: Sensor, turn-off variant 1)”, the “apparent KD of MS2 coat protein” value is, setting by setting: (input ligand: FMN 200 uM) 861 nM; (input ligand: none) 992 nM. With “CUUUCGUGAGGAUAUCAGUAGUAAAAAUAUAAAAUUACUACUGAGAAGGCACAUGAGGAUCACCCAUGUUCCUC [salish99_ex3_r3_100] (puzzle: Exclusion 4)”, the “apparent KD of MS2 coat protein” value under setting [2] is 24.1 nM.

Regarding “CUUUCGUGAGGAUAUCAGUAGUAAAUAAAUAAAAUUACUACUGAGAAGGCACAUGAGGAUCACCCAUGUUCCUC [salish99_ex3_r3_096] (puzzle: Exclusion 4)”, the “apparent KD of MS2 coat protein” value under setting [2] turned out to be 23.5 nM. With “CUUUCGUGAGGAUAUGUGGCUUCGAAAGUGAGAUCGAGGCUACAGAAGGCACAUGAGGAUCACCCAUGUUCCUC [salish99_ex4_r4_214] (Eterna round: R97, puzzle: Exclusion 4)”, the “apparent KD of MS2 coat protein” value is, setting by setting: (input ligand: FMN 200 uM) 371 nM; (input ligand: none) 28.2 nM.

For the sequence “CUUUCUUGCAAGGAUAUGCAAUUUAUUAUUUAUGCAGAAGGUGCUACAUGAGGAUCACCCAUGUUUCUGGGUUU [JR_E6_Sub045] (puzzle: Exclusion 6)”, the “apparent KD of MS2 coat protein” value under setting [2] came out at 124 nM. On to “CUUUUGUGAGGAUAUCAGUAGUAAAAUAAUAAAAUAACUACUGAGAAGGCACAUGAGGAUCACCCAUGUUCCUC [Mat - Exclusion 4 - Mod of Salish - D73] (puzzle: Exclusion 4)”, for which, under setting [2], the “apparent KD of MS2 coat protein” value amounted to 33.9 nM. Same read-out and setting: next, “CUUUUGUGAGGAUAUCAGUAGUAAUACAAUAGUAUUAUUACUGAGAAGGCACAUGAGGAUCACCCAUGUUCCUC [Ex4 344 Omei mod 7] (puzzle: Exclusion 4)”: 38.6 nM; “CUUUUGUGAGGAUAUCAGUGGUAAAACAAUAGUAUUACUACUGAGAAGGCACAUGAGGAUCACCCAUGUUCCUC [Mat - Exclusion 4 - Mod of Omei - D85] (puzzle: Exclusion 4)”: 42.7 nM.

On to “CUUUUGUGAGGAUAUGGUAACGUUUACAUGAGGAUCACCCAUGUUUCAUGGGACUUGAGACUAGAAGGCACUAACG [JR_Ex5_Sub027] (Eterna round: R97, puzzle: Exclusion 5)”, for which the “apparent KD of MS2 coat protein” value came out at 516 nM (input ligand: FMN 200 uM) and 823 nM (input ligand: none).

Turning to “CUUUUGUGAGGAUAUUCGUAGUAGGGUCAUGGUACUAUUACGGAGAAGGCACAUGAGGAUCACCCAUGUACCUU [EX4 #44] (Eterna round: R97, puzzle: Exclusion 4)”, the “apparent KD of MS2 coat protein” value was determined as 25 nM (input ligand: FMN 200 uM) and 15.8 nM (input ligand: none). With “GAAAAACAUGAGGAUCACCCAUGUAAGGAUAUGCUGAAAAAACACUGGAAACAGUGCAGCAGAAGGUACAAAAG [Mat - Exclusion 1 - Eli mod - D100] (Eterna round: R96, puzzle: Exclusion 1)”, under setting [1], the “apparent KD of MS2 coat protein” value turned out to be 47.6 nM.

For the sequence “GAAAACGCAGAGGAUAUAUCAGAUCAAAGCUGCAUAGAAGGCUGCACAUGAGGAUCACCCAUGUGGUCUUUAAU [Mat - Exclusion 6 - JL Mod - D1] (Eterna round: R97, puzzle: Exclusion 6)”, the “apparent KD of MS2 coat protein” value (input ligand: FMN 200 uM) came to 237 nM and the “apparent KD of MS2 coat protein” value (input ligand: none) amounted to 24 nM. The corresponding values for “GAAAAGGCAGAGGAUAUUUCAGGUCAAAGCUGCAAAGAAGGCUGCACAUGAGGAUCACCCAUGUGGUCUUAAAA [Mod of Quesina 6 - Jieux - Exclusion 6] (Eterna round: R97, puzzle: Exclusion 6)” are 150 nM and 22.6 nM. The matching figures for “GAAAAGGUAGAGGAUAUUUCAGAUCAAAGCUGCAAAGAAGGCUGCACAUGAGGAUCACCCAUGUGGUCUUCAAA [Mod of Quesina 9 - Jieux - Exclusion 6] (Eterna round: R97, puzzle: Exclusion 6)”: 121 nM and 19.7 nM. On to “GAAAAGGUAGGAUAUACGAAAAAAAAGGGUAGAAAAAAAACACAUGAGGAUCACCCAUGUAGAAGGACCAAAAC [salish99_ex2_r3_052] (puzzle: Exclusion 2)”, for which the “apparent KD of MS2 coat protein” value reads like this: under setting [3], 94.7 nM; under setting [2], 35.3 nM; under setting [4], 27.8 nM. The corresponding values for “GAAAAGGUAGGAUAUACGAAAAAAAAGGGUAGAAAAAAAAGACAUGAGGAUCACCCAUGUAGAAGGACCAAAAG [salish99_ex2_r3_061] (puzzle: Exclusion 2)” are 76.6 nM, 36.5 nM and 27.1 nM. The corresponding values for “GAAAAGGUAGGAUAUACGAAAAAAAAGGUUAGAAAAAAAACACAUGAGGAUCACCCAUGUAGAAGGACCAAAAG [salish99_ex2_r3_067] (puzzle: Exclusion 2)” are 17.4 nM, 21.8 nM and 17.8 nM. The corresponding values for “GAAAAGGUAGGAUAUACGAGAAGAAAGGGUAGAGAAGAAACACAUGAGGAUCACCCAUGUAGAAGGACCAAAAG [salish99_ex2_r3_099] (puzzle: Exclusion 2)” are 66.7 nM, 29.9 nM and 29.9 nM. On to “GAAAAGGUAGGAUAUACUAAAAAAAAGGGUAGAAAAAAAACACAUGAGGAUCACCCAUGUAGAAGGACCAAAAG [salish99_ex2_r3_058] (puzzle: Exclusion 2)”, for which the “apparent KD of MS2 coat protein” value by setting is: under setting [3], 48.2 nM; under setting [2], 31.8 nM; under setting [4], 20.8 nM. “GAAACCAGAGGAUAUGCGAAUAAAUAAAACUUUUUUUUUUAACAUGAGGAUCACCCAUGUAGAAGGCUGCAAAG [Ex2 #35] (Eterna round: R97, puzzle: Exclusion 2)”: the “apparent KD of MS2 coat protein” value reads like this: (input ligand: FMN 200 uM) 32 nM; (input ligand: none) 31 nM. The corresponding values for “GAAAGACAUGAGGAUCACCCAUGUCAGGAUAUGAUGCCAGCGUAGCUAGUAGGUUUUGUCAGAAGGGACGGGUU [Eternabot (L1) Solution 70] (Eterna round: R97, puzzle: Exclusion 1)” are 32.2 nM and 27.4 nM.
